Measurements taken from paper PMC11203719, “Mts1 (S100A4) and Its Peptide Demonstrate Cytotoxic Activity in Complex with Tag7 (PGLYRP1) Peptide” (International Journal of Molecular Sciences, 2024).

B1: Mts1 (S100A4) protein, recombinant human (natural protein)
chain: not shown
modifications: Alexa Fluor 633 label (only in the thermophoresis with Tag7, 17.1, 17.1A and 17.1B)
notes: cDNA subcloned into pQE-30; PDB 3NCF is printed for Mts1 but may be a misprint; also called metastasin 1; full-sized Mts1; source: E. coli M15 (pREP4), pQE-30, purified (HisTrap FF)

Assays:
[1] = molecular target: B1; assay: MST; Mts1 labelled with Alexa Fluor 633 (200 nM), preincubated 20 min in the dark at room temperature with 16 concentrations of Tag7 or peptide; Monolith NT.115, 10% IR laser power; apparent Kd; settings: both partners purified
[2] = molecular target: the molecule itself; assay: SDS-PAGE and Western blot; eluate of recombinant Mts1 from 17.1-Sepharose resolved by 12% SDS-PAGE and blotted with anti-Mts1; oligomer state read from the band

| Binder | Kd [1] | stoichiometry N [2] |
| --- | --- | --- |
| RSNYVLKG (source: synthetic peptide (Fmoc, HPLC purified)) [peptide 17.1A of Tag7 (PGLYRP1)] | 109 nM |  |
| B1 |  | 4 |
| HRDVQRT (source: synthetic peptide (Fmoc, HPLC purified)) [peptide 17.1B of Tag7 (PGLYRP1)] | 7.26 nM |  |
